Broadly, the EC50 (read off the curve) is the concentration needed to bring the measured effect to its halfway point. For orientation: Kd means the concentration at which binding is half-saturated. Low values mean tighter binding, high ones weaker binding. The term koff denotes the rate constant with which the complex falls apart. In general, kon refers to the rate constant with which the complex forms. A low value points to slow association.

We go through three molecules from patent US20240043533A1 (NGM BIOPHARMACEUTICALS, published 2024).

In one test the target is T1, human LILRA1 (human, UniProt O75019 17-489).
T1 construct: whole, on cells
T1 sequence (O75019 17-489): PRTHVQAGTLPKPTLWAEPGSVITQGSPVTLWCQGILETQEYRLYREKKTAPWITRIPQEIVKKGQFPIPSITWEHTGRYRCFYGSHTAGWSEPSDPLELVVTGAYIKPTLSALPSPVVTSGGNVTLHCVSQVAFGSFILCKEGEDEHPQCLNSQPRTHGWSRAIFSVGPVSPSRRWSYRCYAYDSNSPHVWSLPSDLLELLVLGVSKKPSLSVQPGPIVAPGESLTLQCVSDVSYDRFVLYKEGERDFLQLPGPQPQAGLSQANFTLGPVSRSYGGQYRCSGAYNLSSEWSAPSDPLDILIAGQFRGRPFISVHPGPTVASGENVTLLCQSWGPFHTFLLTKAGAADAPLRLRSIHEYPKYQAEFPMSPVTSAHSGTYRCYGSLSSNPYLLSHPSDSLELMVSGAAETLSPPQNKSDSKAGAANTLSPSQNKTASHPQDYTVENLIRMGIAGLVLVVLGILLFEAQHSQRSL
As to the kind of experiment: FACS on cells expressing human LILRA1, labeled anti-mouse Fc secondary antibody. The method, then: (§1) ELISA assays were used to screen antibodies against human ILT3 and human LILRA1,2,4-6. […] These antibodies were rescreened by FACS for binding to human ILT3 and cyno ILT3 expressed on HEK-293T cells. The antibodies that bound to both human and cyno ILT3 were selected. This subset of antibodies were screened by FACS against human LILRB1-5 (ILT2, ILT4, ILT5, ILT3, and LILRB5, respectively), cyno LILRB5, and human LILRA1,2,4-6. For FACS screening, each antibody was incubated with cells expressing human ILT3, cyno ILT3, one of the LILRA proteins, or one of the LILRB proteins for 30 minutes at 4° C. After washing, the cells were incubated with labeled anti-mouse Fc antibody for 30 minutes at 4° C. After washing, cells were analyzed on a flow cytometer. Antibodies were selected on the criteria of binding to human ILT3, cyno ILT3, no or limited binding to other LILRB proteins, and no or limited binding to LILRA proteins.

The next test deals with T2, human LILRB2 (human, UniProt Q8N423 22-597).
T2 construct: whole, on cells; also called ILT4
T2 sequence (Q8N423 22-597): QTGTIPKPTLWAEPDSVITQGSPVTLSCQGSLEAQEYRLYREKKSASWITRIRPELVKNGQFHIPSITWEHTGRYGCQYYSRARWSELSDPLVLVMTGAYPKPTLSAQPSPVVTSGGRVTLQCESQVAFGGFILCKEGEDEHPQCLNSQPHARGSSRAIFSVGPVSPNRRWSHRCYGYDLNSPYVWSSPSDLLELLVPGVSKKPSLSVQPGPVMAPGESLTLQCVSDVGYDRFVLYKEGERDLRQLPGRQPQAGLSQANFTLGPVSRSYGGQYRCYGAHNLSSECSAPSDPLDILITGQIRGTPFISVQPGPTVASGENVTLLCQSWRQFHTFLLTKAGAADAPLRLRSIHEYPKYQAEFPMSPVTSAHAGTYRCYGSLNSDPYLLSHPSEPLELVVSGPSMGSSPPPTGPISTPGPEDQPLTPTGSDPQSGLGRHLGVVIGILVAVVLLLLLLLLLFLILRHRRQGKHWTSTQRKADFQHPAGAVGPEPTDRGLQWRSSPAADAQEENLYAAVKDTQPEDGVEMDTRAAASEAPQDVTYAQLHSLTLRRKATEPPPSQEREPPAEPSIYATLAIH
As to the kind of experiment: FACS on cells expressing human LILRB2, labeled anti-mouse Fc secondary antibody. The method, then: as §1

For another test, the target named is T3, LILRB4.
T3 construct: the construct expressed on the cells is not described further; also called human ILT3 expressed on cells for the FACS screen; ILT3
T3 sequence (receptor, as listed by the source limits assumed): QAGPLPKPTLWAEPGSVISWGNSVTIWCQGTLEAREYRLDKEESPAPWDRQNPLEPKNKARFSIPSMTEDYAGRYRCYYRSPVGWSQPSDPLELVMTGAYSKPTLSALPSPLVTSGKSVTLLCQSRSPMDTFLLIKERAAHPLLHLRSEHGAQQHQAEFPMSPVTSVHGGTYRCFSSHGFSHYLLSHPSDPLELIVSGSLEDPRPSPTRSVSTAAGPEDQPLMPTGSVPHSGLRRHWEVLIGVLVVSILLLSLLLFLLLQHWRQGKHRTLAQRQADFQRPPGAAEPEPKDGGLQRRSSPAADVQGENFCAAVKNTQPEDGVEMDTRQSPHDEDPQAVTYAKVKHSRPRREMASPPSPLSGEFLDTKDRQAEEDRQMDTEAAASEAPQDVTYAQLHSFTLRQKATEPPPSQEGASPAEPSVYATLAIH
Nature of the test: FACS on cells expressing human LILRB4 (ILT3), labeled anti-mouse Fc secondary antibody. The method, then:
as §1

Test [1] addresses ILT3 extracellular domain chimeric receptor on NFAT-GFP reporter cells (human). As to the kind of experiment: cell-based or functional assay.
Another test deals with T4, Cyno LILRB5 (Macaca fascicularis, UniProt A0A2K5VIP6).
T4 construct: expressed on the cell surface; also called cynomolgus LILRB5
T4 sequence (A0A2K5VIP6 entry or part of it): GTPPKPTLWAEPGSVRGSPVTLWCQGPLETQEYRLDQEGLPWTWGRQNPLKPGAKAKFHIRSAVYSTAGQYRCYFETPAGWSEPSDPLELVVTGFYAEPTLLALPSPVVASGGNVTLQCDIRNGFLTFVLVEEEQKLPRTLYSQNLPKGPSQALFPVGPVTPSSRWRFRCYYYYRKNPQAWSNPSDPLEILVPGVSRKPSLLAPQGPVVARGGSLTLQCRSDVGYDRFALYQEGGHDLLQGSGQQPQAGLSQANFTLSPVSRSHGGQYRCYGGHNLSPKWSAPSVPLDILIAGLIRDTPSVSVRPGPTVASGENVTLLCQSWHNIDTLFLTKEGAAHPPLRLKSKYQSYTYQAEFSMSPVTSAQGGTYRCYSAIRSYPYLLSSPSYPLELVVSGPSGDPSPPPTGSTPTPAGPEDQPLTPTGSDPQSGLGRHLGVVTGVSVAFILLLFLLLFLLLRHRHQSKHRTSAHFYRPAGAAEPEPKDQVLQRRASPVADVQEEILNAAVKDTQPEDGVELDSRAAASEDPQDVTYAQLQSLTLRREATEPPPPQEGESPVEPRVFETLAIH
As to the kind of experiment: FACS on cells expressing cyno LILRB5, labeled anti-mouse Fc secondary antibody. The method, then: as §1

The target of test [2] is T5, ILT3ECD-Fc (human ILT3 extracellular domain fused to an immunoglobulin Fc region) (human, UniProt Q8NHJ6 22-259).
T5 construct: also called Human ILT3ECD-Fc; not shown: immunoglobulin Fc region
Nature of the test: blocking of the binding of ILT3-ECD-Fc (1 µg/mL) to endogenous fibronectin on Detroit 551 cells; imaging with polyclonal anti-ILT3 and AlexaFluor 647 secondary antibody. The method, then: FIG. 14. ILT3 binding to endogenously expressed fibronectin. Detroit 551 cells were plated onto poly-D-lysine-coated 384-well plates at 6×10³ cells/well and incubated for two days. Monolayers were rinsed with HBSS containing Mg²⁺ and Ca²⁺. ILT3-ECD-Fc was added to the wells in the presence of ant-ILT3 antibody 16C5, anti-ILT3 antibody ch5A7, or control anti-KLH antibody. The antibodies were serially diluted 3-fold in media containing the ILT3-ECD-Fc (range of 66 nM to 0.27 nM). Cells were incubated for 1 hr at room temperature and then washed three times with HBSS and fixed with 3.7% formalin for 10 min. Monolayers were rinsed with PBS and blocked with 1% BSA in PBS before staining with Hoechst stain and a commercially available polyclonal anti-ILT3 antibody. An AlexaFluor 647-conjugated rabbit anti-goat Fc secondary antibody was added, cells were imaged, and the level of fluorescence was quantified using a CellInsight imaging system.
The Detroit 551 cell line is composed of human skin fibroblasts established from normal fetal tissue. These cells have endogenously produced fibronectin bound to receptors on their surface. […] An AlexaFluor 647-conjugated rabbit anti-goat Fc secondary antibody (Jackson ImmunoResearch Labs) was added, cells were imaged, and the level of fluorescence was quantified using a Celllnsight imaging system.

For a further test, the target named is T6, human LILRA5 (human, UniProt A6NI73 42-299).
T6 construct: whole, on cells
T6 sequence (A6NI73 42-299): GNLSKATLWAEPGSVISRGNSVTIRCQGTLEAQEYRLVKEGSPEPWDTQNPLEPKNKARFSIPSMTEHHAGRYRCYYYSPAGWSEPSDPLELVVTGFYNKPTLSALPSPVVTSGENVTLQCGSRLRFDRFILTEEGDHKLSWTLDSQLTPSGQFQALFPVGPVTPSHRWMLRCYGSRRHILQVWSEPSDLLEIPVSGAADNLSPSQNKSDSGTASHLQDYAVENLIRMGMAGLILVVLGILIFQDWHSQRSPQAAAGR
Nature of the test: FACS on cells expressing human LILRA5, labeled anti-mouse Fc secondary antibody. The method, then: as §1

In the next test the target is T7, LILRB3 (human, UniProt O75022).
T7 construct: expressed on the cell surface; also called human LILRB3; ILT5
T7 sequence (O75022 24-631 limits assumed): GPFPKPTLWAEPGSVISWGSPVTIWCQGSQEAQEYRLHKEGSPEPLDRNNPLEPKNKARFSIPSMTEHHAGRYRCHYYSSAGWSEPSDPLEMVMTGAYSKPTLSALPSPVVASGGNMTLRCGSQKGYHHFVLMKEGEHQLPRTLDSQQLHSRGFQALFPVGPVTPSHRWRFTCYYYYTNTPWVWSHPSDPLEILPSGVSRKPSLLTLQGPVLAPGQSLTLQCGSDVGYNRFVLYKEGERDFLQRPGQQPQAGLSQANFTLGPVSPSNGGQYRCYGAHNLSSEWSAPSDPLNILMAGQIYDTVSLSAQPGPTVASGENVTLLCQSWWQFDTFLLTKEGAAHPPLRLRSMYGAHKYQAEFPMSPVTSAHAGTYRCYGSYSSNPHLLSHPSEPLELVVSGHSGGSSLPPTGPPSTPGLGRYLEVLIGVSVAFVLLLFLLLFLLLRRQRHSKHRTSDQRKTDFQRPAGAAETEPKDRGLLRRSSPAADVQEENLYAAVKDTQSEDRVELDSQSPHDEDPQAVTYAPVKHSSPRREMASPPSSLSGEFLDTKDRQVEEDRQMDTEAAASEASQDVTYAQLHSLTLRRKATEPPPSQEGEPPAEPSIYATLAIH
As to the kind of experiment: FACS on cells expressing human LILRB3, labeled anti-mouse Fc secondary antibody. The method, then:
as §1

The target of a further test is T8, human LILRA2 (human, UniProt Q8N149 24-483).
T8 construct: whole, on cells
T8 sequence (Q8N149 24-483): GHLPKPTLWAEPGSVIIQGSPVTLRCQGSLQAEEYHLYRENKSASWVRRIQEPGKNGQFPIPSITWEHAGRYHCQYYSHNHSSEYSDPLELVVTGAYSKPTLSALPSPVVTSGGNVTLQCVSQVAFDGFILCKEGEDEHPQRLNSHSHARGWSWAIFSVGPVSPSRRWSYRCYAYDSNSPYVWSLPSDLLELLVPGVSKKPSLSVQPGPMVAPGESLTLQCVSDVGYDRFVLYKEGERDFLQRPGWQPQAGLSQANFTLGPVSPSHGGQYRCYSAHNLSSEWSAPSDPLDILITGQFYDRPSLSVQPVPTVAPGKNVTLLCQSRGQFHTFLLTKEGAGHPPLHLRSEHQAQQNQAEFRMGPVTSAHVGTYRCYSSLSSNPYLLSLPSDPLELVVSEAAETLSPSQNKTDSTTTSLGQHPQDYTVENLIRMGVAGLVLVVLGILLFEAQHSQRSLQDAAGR
Nature of the test: FACS on cells expressing human LILRA2, labeled anti-mouse Fc secondary antibody. The method, then:
as §1

The next test has as its target T9, human LILRA4 (human, UniProt P59901 24-499).
T9 construct: whole, on cells
As to the kind of experiment: FACS on cells expressing human LILRA4, labeled anti-mouse Fc secondary antibody. The method, then: as §1

The next test addresses T10, LILRB5 (human, UniProt O75023).
T10 construct: expressed on the cell surface; also called human LILRB5; CD85C
Nature of the test: FACS on cells expressing human LILRB5, labeled anti-mouse Fc secondary antibody. The method, then:
as §1

A further test concerns the target T11, human LILRA6 (human, UniProt Q6PI73 24-447, limits assumed).
T11 construct: Read out of the printed 'LILRA1,2,4-6'
Nature of the test: FACS on cells expressing human LILRA6, labeled anti-mouse Fc secondary antibody. The method, then: as §1

Test [3] has as its target human ILT3 expressed on myeloid cells (THP-1 cells, primary dendritic cells, macrophages) (human, UniProt Q8NHJ6 22-448). Nature of the test: cell-based or functional assay.
Test [4] deals with T12, extracellular domain of cyno ILT3 (cynoILT3-ECD) (cynomolgus monkey).
T12 chain: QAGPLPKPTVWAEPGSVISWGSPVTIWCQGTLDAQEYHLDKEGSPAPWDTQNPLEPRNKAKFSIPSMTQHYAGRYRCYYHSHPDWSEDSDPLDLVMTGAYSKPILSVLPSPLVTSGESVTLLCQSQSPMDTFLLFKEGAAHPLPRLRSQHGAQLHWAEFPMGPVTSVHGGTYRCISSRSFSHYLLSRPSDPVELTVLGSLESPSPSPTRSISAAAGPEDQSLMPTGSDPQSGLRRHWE
As to the kind of experiment: SPR (Biacore), antibody captured via anti-Fc on CM5 chip, soluble ILT3-ECD injected, 37 C. The method, then:
(§2) The binding affinities of anti-ILT3 antibodies to human ILT3 and cyno ILT3 were measured using a Biacore system (GE Healthcare LifeSciences). Briefly, anti-Fc antibody (Sigma-Aldrich) was immobilized on all four flow cells of a CM5 chip using amine coupling reagents (GE Healthcare LifeSciences). Antibodies were captured on flow cells 2, 3, and 4 using flow cell 1 as a reference. Concentrations ranging from 3.3-10 nM of human or cyno ILT3-ECD were injected at a flow rate of 50 μL/min at 37° C. Kinetic data were collected over time and fit using the simultaneous global fit equation to yield affinity constants (KD values) for each antibody.
Background: Surface plasmon resonance follows binding to a sensor surface in real time, without labels.

For test [5], the target named is T13, extracellular domain of human ILT3 (huILT3-ECD) (human, UniProt Q8NHJ6 22-259).
T13 construct: also called human ILT3-ECD
The description is as above. The method, then:
as §2

For test [6], the target named is T12, extracellular domain of cyno ILT3 …. The test is described as above. The method, then: as §2
(§3) The binding affinity of Hz5A7.v5 to human ILT3 and cyno ILT3 was determined using a Biacore system as described herein and compared with the binding affinity of the parental chimeric 5A7 (ch5A7) antibody and humanized 5A7 without any CDR modifications (Hz5A7.v1) (see Table 12).

Test [7] concerns the target T13, extracellular domain of human ILT3 …. Described as above. The method, then: as §2, §3
This is another data set of the same source.

The target of test [8] is T14, cynomolgus ILT3 expressed on cells (THP-1 reporter cells transduced with cyno ILT3); cyno monocyte-derived … (cynomolgus monkey).
T14 chain: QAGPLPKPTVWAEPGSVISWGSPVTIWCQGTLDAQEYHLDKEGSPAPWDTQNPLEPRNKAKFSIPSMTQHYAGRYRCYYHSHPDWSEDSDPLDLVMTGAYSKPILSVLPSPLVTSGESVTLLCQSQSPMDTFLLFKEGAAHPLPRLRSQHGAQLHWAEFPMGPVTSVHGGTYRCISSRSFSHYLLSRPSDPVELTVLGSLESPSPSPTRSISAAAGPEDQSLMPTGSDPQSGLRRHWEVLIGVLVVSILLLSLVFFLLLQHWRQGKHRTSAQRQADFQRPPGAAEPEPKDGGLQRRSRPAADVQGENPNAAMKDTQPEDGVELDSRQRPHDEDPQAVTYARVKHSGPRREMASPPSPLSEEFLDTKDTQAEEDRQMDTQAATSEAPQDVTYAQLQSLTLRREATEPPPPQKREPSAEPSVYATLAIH
Nature of the test: cell-based or functional assay.

Test [9] concerns the target T15, human plasma-derived fibronectin (Millipore) (human, UniProt P02751 32-2477).
T15 construct: Bought protein; also called human plasma fibronectin; human fibronectin
As to the kind of experiment: SPR (Biacore), human plasma fibronectin amine-coupled on CM5 chip, ECD-Fc injected, 37 C. The method, then: (§4) The binding of ILT3 to fibronectin was evaluated by Biacore. Human plasma fibronectin was immobilized onto a CM5 sensor chip surface (flow cell 2) using standard amine coupling chemistry. Collagen type IV was immobilized onto flow cell 3 and used as a control. Human ILT3ECD-Fc or human LAIR1ECD-Fc were injected over both surfaces at different concentrations (125-4000 nM) at a flow rate of 50 μL/min at 37° C. Kinetic data were collected over time and fit using the simultaneous global fit equation to yield affinity constants (KD values) for each antibody.

The target in a further test is T16, collagen type IV.
T16 construct: Control surface in the Biacore experiment; also called collagen IV
Nature of the test: SPR (Biacore), collagen type IV amine-coupled on CM5 chip, LAIR1ECD-Fc injected at 125-4000 nM, 37 C. The method, then:
as §4

Where two headings read alike, the source gives them in different places.

T9 sequence (P59901 24-499): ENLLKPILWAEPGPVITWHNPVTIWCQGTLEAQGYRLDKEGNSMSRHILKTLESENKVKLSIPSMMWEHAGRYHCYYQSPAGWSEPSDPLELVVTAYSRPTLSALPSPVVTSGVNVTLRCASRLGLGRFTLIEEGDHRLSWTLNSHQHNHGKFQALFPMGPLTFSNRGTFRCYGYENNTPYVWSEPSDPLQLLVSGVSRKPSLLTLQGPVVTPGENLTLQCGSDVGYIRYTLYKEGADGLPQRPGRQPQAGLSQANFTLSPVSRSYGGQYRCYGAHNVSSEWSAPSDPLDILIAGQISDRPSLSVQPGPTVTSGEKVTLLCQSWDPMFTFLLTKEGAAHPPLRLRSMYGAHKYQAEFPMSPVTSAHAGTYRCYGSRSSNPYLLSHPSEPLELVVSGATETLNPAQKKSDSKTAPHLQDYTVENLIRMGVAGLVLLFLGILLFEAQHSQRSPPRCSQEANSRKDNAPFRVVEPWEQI
Chain of ILT3 extracellular domain chimeric receptor on NFAT-GFP reporter cells (human) (Q8NHJ6 22-259, change not shown): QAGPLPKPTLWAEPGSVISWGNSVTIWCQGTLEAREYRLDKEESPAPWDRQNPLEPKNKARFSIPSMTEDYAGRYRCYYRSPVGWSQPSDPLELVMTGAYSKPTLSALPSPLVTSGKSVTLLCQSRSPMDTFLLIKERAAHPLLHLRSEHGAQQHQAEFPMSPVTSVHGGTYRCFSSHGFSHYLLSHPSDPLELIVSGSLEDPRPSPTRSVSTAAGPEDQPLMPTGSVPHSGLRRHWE
T10 sequence (O75023 24-590 limits assumed): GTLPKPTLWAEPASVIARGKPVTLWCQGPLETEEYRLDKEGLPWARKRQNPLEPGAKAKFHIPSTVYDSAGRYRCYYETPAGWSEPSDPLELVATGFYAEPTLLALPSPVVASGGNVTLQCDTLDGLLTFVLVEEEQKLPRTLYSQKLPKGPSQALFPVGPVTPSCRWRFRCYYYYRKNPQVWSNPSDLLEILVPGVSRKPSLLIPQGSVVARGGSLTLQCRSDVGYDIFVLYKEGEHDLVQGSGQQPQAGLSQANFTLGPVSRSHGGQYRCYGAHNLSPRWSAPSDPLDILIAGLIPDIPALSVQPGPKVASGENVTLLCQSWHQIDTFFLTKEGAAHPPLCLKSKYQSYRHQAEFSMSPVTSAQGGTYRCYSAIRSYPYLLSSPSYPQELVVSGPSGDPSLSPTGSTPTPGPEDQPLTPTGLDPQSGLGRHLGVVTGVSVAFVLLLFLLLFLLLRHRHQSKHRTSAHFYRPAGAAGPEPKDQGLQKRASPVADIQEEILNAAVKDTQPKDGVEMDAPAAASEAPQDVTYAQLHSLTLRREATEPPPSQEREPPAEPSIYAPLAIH

B1: anti-ILT3 antibody 16C5 (antibody, V domains shown)
VH: EVQLQQSGPELVKPGASVKISCKASGYTFTDYNMDWVKQSHGKSLEWIGYIYPSNGGTGYNQKFKSKATLTVDKSSNTAYMELHSLTSEDSAVYYCARVPYYDYLYYYAMDYWGQGTSVTVSS
VL: QIVLSQSPAILSASPGEKVTMACRASSSVSFMHWYQQKPGSSPQPWIYATSNLASGVPARFSGSGSGTSYSLTISRVEAEDAATYYCQQWSTNPYMYTFGGGTKLEIK
notes: Mouse monoclonal antibody from hybridoma
Consider B1, for which the binding result with human LILRA1 was “no binding (tested: log [Ab] about -7.2 M (about 6e-8 M))”; with human LILRB2, “no binding (tested: log [Ab] about -7.2 M (about 6e-8 M))”; with LILRB4, “binds”; in test [2] it was “binds”; in the test with human LILRA5, “binds”; in the test with LILRB3, “no binding (tested: log [Ab] about -7.2 M (about 6e-8 M))”. Further, the binding result in the test with human LILRA2, with human LILRA4, with LILRB5 and with human LILRA6 was “no binding (tested: log [Ab] about -7.2 M (about 6e-8 M))” throughout. Besides, the “IC50 (read off the curve)” value in test [1] is roughly 0.2 nM. In addition, the “EC50 (read off the curve)” value in the test with Cyno LILRB5 is roughly 0.9 nM; in [3] it was roughly 2 nM. The equilibrium dissociation constant (Kd) in [4] was determined as 0.31 nM; in test [5] it was 1.8 nM. Moreover, the koff is 9e-05 s⁻¹ in test [4] and 0.0002 s⁻¹ in test [5]. Besides, the kon stood at 290000 M⁻¹ s⁻¹ in test [4] and 110000 M⁻¹ s⁻¹ in [5].

B2: anti-ILT3 antibody Hz5A7.v5 (antibody, human IgG1, kappa, N297G, V domains shown)
VH: EVQLVESGGGLVQPGGSLRLSCAASGFTFSSYGMSWVRQAPGKGLEWVATISGGGSYTNYPDSVKGRFTISRDNAKNSLYLQMNSLRAEDTAVYYCARREWRYTLYAMDYWGQGTTVTVSS
VL: DIQLTQSPSFLSASVGDRVTITCRASESVESYGSSFMHWYQQKPGKAPKLLIYLTSNLESGVPSRFSGSGSGTEFTLTISSLQPEDFATYYCQQNNEDPFTFGQGTKLEIKR
notes: Humanized 5A7 variant
In test [6], B2 yielded a Kd of 0.7 nM, a koff of 0.0071 s⁻¹ and a kon of 1.1e+07 M⁻¹ s⁻¹. In test [7], this molecule registered a Kd of 0.28 nM, a koff of 0.00081 s⁻¹ and a kon of 2.8e+06 M⁻¹ s⁻¹. Also, in [8], the “EC50 (read off the curve)” value was roughly 0.2 nM.

B3: human LAIR1ECD-Fc (Fc fusion, UniProt Q6GTX8 22-165, looked up)
chain: QEEDLPRPSISAEPGTVIPLGSHVTFVCRGPVGVQTFRLERDSRSTYNDTEDVSQASPSESEARFRIDSVREGNAGLYRCIYYKPPKWSEQSDYLELLVKESSGGPDSPDTEPGSSAGPTQRPSDNSHNEHAPASQGLKAEHLY
notes: extracellular domain; not shown: Fc region
Regarding B3, the binding result in test [9] is “no binding (tested: 125-4000 nM)”. In addition, the Kd in the test with collagen type IV was no less than 5000 nM.
